Data published in patent US7867500B2, “Cofactor that modulates steroid receptor activities” (The United States of America as represented by the …, priority 2004, dated 2011).

T1: thyroid receptor β (TRβ) (Homo sapiens, UniProt P10828)
T1 construct: the whole cell actions of TIF2 with full length AR and TRβ; expressed in transfected cells; host or cells: CV-1
T1 sequence (P10828 1-461): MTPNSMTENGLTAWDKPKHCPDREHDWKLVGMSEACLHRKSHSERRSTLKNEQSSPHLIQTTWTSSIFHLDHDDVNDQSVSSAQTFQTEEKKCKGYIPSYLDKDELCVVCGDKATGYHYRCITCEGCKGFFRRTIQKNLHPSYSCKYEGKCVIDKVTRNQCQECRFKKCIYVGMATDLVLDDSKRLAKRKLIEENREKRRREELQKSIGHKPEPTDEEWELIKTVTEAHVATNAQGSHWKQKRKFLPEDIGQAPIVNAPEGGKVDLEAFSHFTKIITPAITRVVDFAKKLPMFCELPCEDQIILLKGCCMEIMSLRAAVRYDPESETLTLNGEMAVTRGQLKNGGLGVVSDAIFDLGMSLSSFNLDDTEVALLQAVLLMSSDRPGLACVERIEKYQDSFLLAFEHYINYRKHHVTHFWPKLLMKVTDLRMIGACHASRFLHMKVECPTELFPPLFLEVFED

T2: androgen receptors (ARs) (Homo sapiens, UniProt P10275)
T2 construct: plus VP16 fused to the indicated full length receptors; expressed in transfected cells; host or cells: CV-1
T2 sequence (P10275 1-920): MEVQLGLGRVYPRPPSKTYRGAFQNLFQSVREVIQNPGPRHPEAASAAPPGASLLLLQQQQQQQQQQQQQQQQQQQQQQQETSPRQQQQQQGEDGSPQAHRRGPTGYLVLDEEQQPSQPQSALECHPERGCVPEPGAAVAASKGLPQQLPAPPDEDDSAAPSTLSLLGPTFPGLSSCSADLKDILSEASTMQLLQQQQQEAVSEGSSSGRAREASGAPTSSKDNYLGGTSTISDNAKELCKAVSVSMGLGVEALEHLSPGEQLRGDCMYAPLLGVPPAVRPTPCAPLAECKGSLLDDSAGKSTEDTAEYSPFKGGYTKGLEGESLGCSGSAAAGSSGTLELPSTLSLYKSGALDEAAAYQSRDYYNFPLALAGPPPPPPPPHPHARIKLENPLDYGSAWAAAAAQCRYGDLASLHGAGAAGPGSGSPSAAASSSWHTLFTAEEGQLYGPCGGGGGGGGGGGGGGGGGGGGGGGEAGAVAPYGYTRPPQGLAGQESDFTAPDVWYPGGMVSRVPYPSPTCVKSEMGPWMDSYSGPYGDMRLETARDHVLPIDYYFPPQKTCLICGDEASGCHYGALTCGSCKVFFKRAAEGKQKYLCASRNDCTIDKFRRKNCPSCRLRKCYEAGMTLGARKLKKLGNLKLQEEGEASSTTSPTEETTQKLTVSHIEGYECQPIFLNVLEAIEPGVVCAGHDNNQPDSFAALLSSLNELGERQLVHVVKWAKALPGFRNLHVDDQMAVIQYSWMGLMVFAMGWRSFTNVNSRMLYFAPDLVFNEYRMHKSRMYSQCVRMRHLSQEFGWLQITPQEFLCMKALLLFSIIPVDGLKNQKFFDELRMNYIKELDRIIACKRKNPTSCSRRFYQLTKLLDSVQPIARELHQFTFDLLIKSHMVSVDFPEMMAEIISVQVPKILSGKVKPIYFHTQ
T2 sequence (Q6EMB2 838-1281 F1267S partner limits assumed): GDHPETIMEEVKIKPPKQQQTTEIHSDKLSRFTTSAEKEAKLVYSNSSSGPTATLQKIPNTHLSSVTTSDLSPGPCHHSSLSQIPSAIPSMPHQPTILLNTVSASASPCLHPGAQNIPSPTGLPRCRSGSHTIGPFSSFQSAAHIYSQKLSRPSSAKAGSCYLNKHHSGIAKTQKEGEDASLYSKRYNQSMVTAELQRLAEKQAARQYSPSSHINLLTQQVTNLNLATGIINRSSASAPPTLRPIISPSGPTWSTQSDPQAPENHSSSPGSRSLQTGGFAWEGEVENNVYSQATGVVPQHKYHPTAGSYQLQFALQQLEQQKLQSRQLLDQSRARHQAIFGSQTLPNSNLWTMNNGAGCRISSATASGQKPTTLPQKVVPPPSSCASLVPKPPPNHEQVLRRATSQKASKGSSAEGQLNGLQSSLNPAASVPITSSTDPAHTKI


Tests used:
[1] = target: T1, thyroid receptor β (TRβ); assay: TRβ-mediated induction of reporter in CV-1 cells; type: cell-based; conditions: triiodothyronine; regardless of whether TIF2 is present
Experimental: FIG. 6D1-2 illustrate the effects of STAMP and TIF2 on androgen receptor (AR, FIG. 6D1) and thyroid receptor β (TRβ, FIG. 6D2) expression. […] Luciferase activities, normalized to the internal Renilla control values, and the fold changes in EC50 and fold induction were determined and plotted as in FIG. 4B.

[2] = target: T2, androgen receptors (ARs); assay: Mammalian two-hybrid assay with VP16 full length receptor: AR; type: cell-based; conditions: 1 nM R1881
Experimental: FIG. 6C1-3 illustrate the association of STAMP with assorted steroid/nuclear receptors, including glucocorticoid receptors (GRs), progesterone receptors (PRs), androgen receptors (ARs), estrogen receptors (ER α or β), PPARγ2 receptors, thyroid receptor beta (TR), and retinoid (α) receptors (RAR α or RXR α). Triplicate samples of CV-1 cells were transfected (as described for FIG. 6B) with GAL, or GAL fused to TIF2.4 or STAMP834C, plus VP16 fused to the indicated full length receptors and incubated with the appropriate steroid (1 μM Dex, 20 nM R5020, 1 nM R1881, 0.1 μM triiodothyronine, or 1 μM estradiol, roziglitazone, or 9-cis-retinoic acid). The average relative luciferase activities of 2-3 experiments±S.E.M. were then plotted. FIG. 6C1 illustrates the effects of STAMP association upon GR, PR and AR induced expression. FIG. 6C2 illustrates the effects of STAMP association upon ERα, ERβ and PPARγ2 induced expression. FIG. 6C3 illustrates the effects of STAMP association upon TR, RARα and RXRα induced expression.
These assays were conducted as described (He et al., 2002). […]

| Molecule | increase of the fold induction with TRβ [1] | left-shift in the dose-response curve with TRβ [1] | interaction with agonist-bound, full length AR [2] |
| --- | --- | --- | --- |
| STAMP: SRC-1 and TIF2 Associated Modulatory Protein, 1277 amino acid human polypeptide, expressed from transfected plasmid (protein) MARDLEETASSSEDEEVISQEDHPCIMWTGGCRRIPVLVFHADAILTKDNNIRVIGERYHLSYKIVRTDSRLVRSILTAHGFHEVHPSSTDYNLMWTGSHLKPFLLRTLSEAQKVNHFPRSYELTRKDRLYKNIIRMQHTHGFKVFHILPQTFLLPAEYAEFCNSYSKDRGPWIVKPVASSRGRGVYLINNPNQISLEENILVSRYINNPLLIDDFKFDVRLYVLVTSYDPLVIYLYEEGLARFATVRYDQGAKNIRNQFMHLTNYSVNKKSGDYVSCDDPEVEDYGNKWSMSAMLRYLKQEGRDTTALMAHVEDLIIKTIISAELAIATACKTFVPHRSSCFELYGFDVLIDSTLKPWLLEVNLSPSLACDAPLDLKIKASMISDMFTVVGFVCQDPAQRASTRPIYPTFESSRRNPFQKPQRCRPLSASDAEMKNLVGSAREKGPGKLGGSVLGLSMEEIKVLRRVKEENDRRGGFIRIFPTSETWEIYGSYLEHKTSMNYMLATRLFQDRMTADGAPELKIESLNSKAKLHAALYERKLLSLEVRKRRRRSSRLRAMRPKYPVITQPAEMNVKTETESEEEEEVALDNEDEEQEASQEESAGFLRENQAKYTPSLTALVENTPKENSMKVREWNNKGGHCCKLETQELEPKFNLMQILQDNGNLSKMQARIAFSAYLQHVQIRLMKDSGGQTFSASWAAKEDEQMELVVRFLKRASNNLQHSLRMVLPSRRLALLERRRILAHQLGDFIIVYNKETEQMAEKKSKKKVEEEEEDGVNMENFQEFIRQASEAELEEVLTFYTQKNKSASVFLGTHSKISKNNNNYSDSGAKGDHPETIMEEVKIKPPKQQQTTEIHSDKLSRFTTSAEKEAKLVYSNSSSGPTATLQKIPNTHLSSVTTSDLSPGPCHHSSLSQIPSAIPSMPHQPTILLNTVSASASPCLHPGAQNIPSPTGLPRCRSGSHTIGPFSSFQSAAHIYSQKLSRPSSAKAGSCYLNKHHSGIAKTQKEGEDASLYSKRYNQSMVTAELQRLAEKQAARQYSPSSHINLLTQQVTNLNLATGIINRSSASAPPTLRPIISPSGPTWSTQSDPQAPENHSSSPGSRSLQTGGFAWEGEVENNVYSQATGVVPQHKYHPTAGSYQLQFALQQLEQQKLQSRQLLDQSRARHQAIFGSQTLPNSNLWTMNNGAGCRISSATASGQKPTTLPQKVVPPPSSCASLVPKPPPNHEQVLRRATSQKASKGSSAEGQLNGLQSSLNPAASVPITSSTDPAHTKI | little ability | little ability | – |
| STAMP834C: STAMP fragment amino acids 834-1277, receptor interaction domain (RID) (protein) GDHPETIMEEVKIKPPKQQQTTEIHSDKLSRFTTSAEKEAKLVYSNSSSGPTATLQKIPNTHLSSVTTSDLSPGPCHHSSLSQIPSAIPSMPHQPTILLNTVSASASPCLHPGAQNIPSPTGLPRCRSGSHTIGPFSSFQSAAHIYSQKLSRPSSAKAGSCYLNKHHSGIAKTQKEGEDASLYSKRYNQSMVTAELQRLAEKQAARQYSPSSHINLLTQQVTNLNLATGIINRSSASAPPTLRPIISPSGPTWSTQSDPQAPENHSSSPGSRSLQTGGFAWEGEVENNVYSQATGVVPQHKYHPTAGSYQLQFALQQLEQQKLQSRQLLDQSRARHQAIFGSQTLPNSNLWTMNNGAGCRISSATASGQKPTTLPQKVVPPPSSCASLVPKPPPNHEQVLRRATSQKASKGSSAEGQLNGLQSSLNPAASVPITSSTDPAHTKI | – | – | interacted |
